Experimental data from the DeepSol protein solubility set.

Experiment: soluble on expression in E. coli; label from the status in PepcDB or PDB records

Row | Sequence | soluble on expression in E. coli
1 | MNRLAHHQGIYKFFFTLGLTLQLSKPVIKHLIHIVDALTTKGFSGTLTDIHHWSFHPNHRTTLSHFFTKSPWNEERLLGKLQEWILRRIERKNQPLFVSIDDTICQKTKPSSRATHAIEGCDWHYSHKDHQSVWGHSLVWLMVHTFTQAFPFAFRLYDKKAGRSKIDLAIEMLSSIKVKLTQPVYVLMDSWYPSKTLIEACLKQGFHVIAMLKTNRILYPKGIAIQAKQFARYIEPKDTRLVTVGQERYRVYRYEGAIHGLDDAVVLLAWKADQPMTPEHLHCVLSTDRGLGDEDILRYYAQRWTIECFFRQAKDQLKLDGYRVRHVRAVKRYWAVVLLASVYSIAESRQTLSAGLELLRSRKDHSVVEFIYDAAKQGIPIDVIKKQLRIA | not soluble
2 | MNRLDQLGIRINLICNVFDKWIGQQDLNYNLFTVLYTLATEGSRTQKHIGEEWSLPKQTVSGVCKTLAGQGLIEWQEGEQDRRERLLSLTEKGKVHAAPLTENAQEFSDKVFSTFGDKRTTRLFADLDALAEVMEKTISENKK | not soluble
3 | MNRMRRSTAFSEHVTFHTVMAKRGTGSKLDREVEIQFTNLQLIGTGSFGAVYKAVLRENDEPIAIKKIKVDDRFKSRELTIMHEMDHPNIIRLLYYYVMQQENCLNFVMEFMPKDLAYVHRQFAHNDKQMPAYSIKLYMFQLLRGIGFLHLHNIVHRDIKPKNLLVDESNGILKICDFGSAKRLEKNEPNITYICSRYYRAPELIFGSKNYDTSIDTWSVGTVVGELLHNSPIFLADSAVDILALQIKAFGTPSKEDMAKWNYEYVHIPYDTITGVGIQKFIGRKLSLSTLELLNSLMKMDPKLRIKPYEALTLPYFDDLRDPHYKLPSGAPIPPLFDWLEREYIANHEIIKDIFPRSEEGDKVECL | not soluble
4 | MNRRVPKSKSWKTRLSAGGANRTSLHGQMSRYPEVAEDYLIMQPSIRRSSGSDLMPVARFNNFKRWNSCLQHVESQPEDIREWDPPPPSSHCPQIYHKSQYSRRERSPDILTDDRGRPIPRRGMFLNAKYSEAARPPIDEDRIRHTEDVIKRMLYKGRRKESMGYYPNRNHLMRDQIRQTVYNLGVPNGYRAPEQDHFEDDYDDQPGPSNRHYGVSSHPEYYREDRWRLAEGDYEVDKGDGSRQLNKEKYLKKRRKQMIERESVDSEISEEEEEEEIYNKQTKRRRSQKTPIQHNKNRTESRLHQKEKSSSDEEVHEKSTSSRHSNVSRSSKSPYLNDDRAPSRGSKCTSSHHSTPKLLTPSPQYLKDSDDDDNWKNSIPFMSSSDGAGAGMRVRIGSAIASLPLRDDSKNSYSEVALMLLERSVKNLKNPQKMLIKEKPQTRIMNMSTSWAQQDPKKRNENDDDEIVPETEKAETSLMHDLSRIQHPQNATTVQMDQTLFTNSKLMKIDVAIAKNWLDTKMKKTLIPPPLFRSSPISEDVFKSSDRITMPSTIKGPESTAVGNRISSDGEEEDFATKQFDIDDYIARGASKIDFSKTITAPNTSFQEPSTSLFKDPTFFRQESKGNEMNIESFSERTPSKNRTSQQMEFQISTSSISKTKTNASLDSIHRRKSKPQPMLEFDAETQKMFDDAFQSDKKSTKEKYPF | not soluble
5 | MNRSALDFRHFVDHLRRQGDLVDVHTEVDANLEIGAITRRVYERRAPAPLFHNIRDSLPGARVLGAPAGLRADRARAHSRLALHFGLPEHSGPRDIVAMLRAAMRAEPIAPRRLERGPVQENVWLGEQVDLTRFPVPLLHEQDGGRYFGTYGFHVVQTPDGSWDSWSVGRLMLVDRNTLAGPTIPTQHIGIIREQWRRLGKPTPWAMALGAPPAALAAAGMPLPEGVSEAGYVGALVGEPVEVVRTQTNGLWVPANTEIVLEGEISLDETALEGPMGEYHGYSFPIGKPQPLFHVHALSFRDQPILPICVAGTPPEENHTIWGTMISAQLLDVAQNAGLPVDMVWCSYEAATCWAVLSIDVQRLAALGTDAAAFAARVAETVFGSHAGHLVPKLILVGNDIDVTEIDQVVWALATRAHPLHDHFAFPQIRDFPMVPYLDAEDKARGSGGRLVINCLYPEQFAGQMRAATASFRHAYPTALRRRVEERWSDYGFGDALEHHHHHH | not soluble
6 | MNRSRDKVRCALNHQNAGSIPVDFGSTAVTGIHCRIVEALRNYYGLAPRPVKIVDAFQMLGEIDAELAEKIGVDCIGIGGPKDIFDLDTTRMHEQTTPWGQRVLVPEAMDLTPDMRGDVYVYAGGDQNYPPSAVMPKGCYFINAIERQQPIEEDRLDPEDNVEEFGLLTENDLAYYCAEADKAYQTGRAVVASFGGTALGDVAFVPGMGLKQPKGIRSVVEWYMSTAMRQDYLHQVFEKEIDIAIANYEKLWAALGDKIDVVLTCGTDFGSQESQFCSIDTFRELWLPHYRRMNDWIHQHTTWKIFKHSCGAIIPILPGLIEAGFDIINPVQINAKDMDSRRLKEEFGSQLTFWGGGVDTQKILPFGTPDEIRRHVMGQCEILGRDGGFVFNAVHNVQANVPVDNVVAMFDALKDISLEHHHHHH | not soluble
